Assay results taken from patent US20150203577A1 (Chugai, published 2015).

T1: mouse FcγRIII (mouse, UniProt P08508 31-215)
T1 construct: also called mFcγRIII; mFcgRIII
T1 chain: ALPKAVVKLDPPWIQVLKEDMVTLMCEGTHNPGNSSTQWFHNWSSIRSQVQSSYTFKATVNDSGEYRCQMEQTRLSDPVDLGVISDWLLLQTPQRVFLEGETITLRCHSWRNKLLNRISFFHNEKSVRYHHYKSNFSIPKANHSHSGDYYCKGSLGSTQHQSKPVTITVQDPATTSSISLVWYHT

T2: mouse FcγRII (mouse, UniProt P08101 30-210)
T2 construct: also called mFcγRII; mFcgRII
T2 sequence: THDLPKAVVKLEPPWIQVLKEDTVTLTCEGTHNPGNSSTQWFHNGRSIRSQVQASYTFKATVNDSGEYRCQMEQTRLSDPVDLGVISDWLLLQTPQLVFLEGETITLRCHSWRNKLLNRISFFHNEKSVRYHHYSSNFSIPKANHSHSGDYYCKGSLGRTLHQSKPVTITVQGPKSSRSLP


Columns and labels:
[1] = molecular target: T1, mouse FcγRIII; test: SPR Biacore T200, KD ratio
Excerpt: (§1) The antibody H chain variable region used was the variable region H237 (SEQ ID NO: 1) of the H chain VH3-IgG1 of the anti-IL-6 receptor antibody Fv4-IgG1 described in WO2009/125825. The antibody L chain commonly used was the L chain MRAL-k0 (SEQ ID NO: 2) of the anti-IL-6 receptor antibody tocilizumab. […] The resulting variant group was designated as MB110 variants. These variants were expressed and purified by the method of Reference Example 1 and evaluated for their binding to mFcγRII and mFcγRIII by the method of Reference Example 2 using Biacore T200.
(§2) Each altered antibody was analyzed for its interaction with each Fcγ receptor prepared above using Biacore T100 (GE Healthcare Japan Corp.), Biacore T200 (GE Healthcare Japan Corp.), Biacore A100, or Biacore 4000. The running buffer used was HBS-EP+ (GE Healthcare Japan Corp.). The assay temperature was set to 25° C. The sensor chips used were chips prepared by immobilizing Protein L (ACTIGEN or BioVision) onto Series S Sensor Chip CM5 (GE Healthcare Japan Corp.) or Series S Sensor Chip CM4 (GE Healthcare Japan Corp.) by the amine coupling method.
(§3) In order to calculate the KD value of each altered antibody for FcγR, kinetic analysis was conducted according to the following method: first, the antibody of interest was captured onto any of these chips and allowed to interact with mFcγR diluted with a running buffer. For the obtained sensorgram, the assay results were globally fit into the 1:1 Langmuir binding model using Biacore Evaluation Software to calculate an association rate constant ka (L/mol/s) and a dissociation rate constant kd (1/s). From these values, the dissociation constant KD (mol/L) was calculated.

[2] = molecular target: T2, mouse FcγRII; test: SPR Biacore T200, KD ratio
Excerpt: as §1, §2, §3

[3] = molecular target: T1, mouse FcγRIII; test: SPR Biacore 4000, KD ratio
[4] = molecular target: T2, mouse FcγRII; test: SPR Biacore 4000, KD ratio

Binder	Relative mFcγRIII-binding activity (MB110 = 1) [1] [fold]	relative mFcγRIII-binding activity (mIgG1 = 1) [1] [fold]	Relative mFcγRII-binding activity (MB110 = 1) [2] [fold]	relative mFcγRII-binding activity (mIgG1 = 1) [2] [fold]	relative mFcγRIII-binding activity (mIgG1 = 1) [3] [fold]	relative mFcγRII-binding activity (mIgG1 = 1) [4] [fold]
H237-MB110/MRAL-k0 (antibody, mouse IgG1, kappa, copies: 2 + 2) heavy: QVQLQESGPGLVKPSETLSLTCAVSGHSISHDHAWSWVRQPPGEGLEWIGFISYSGITNYNPSLQGRVTISRDNSKNTLYLQMNSLRAEDTAVYYCARSLARTTAMDYWGEGTLVTVSSAKTTPPSVYPLAPGSAAQTNSMVTLGCLVKGYFPEPVTVTWNSGSLSSGVHTFPAVLQSDLYTLSSSVTVPSSTWPSETVTCNVAHPASSTKVDKKIVPRDCGCKPCICTVPEVSDVFIFPPKPKDVLTITLTPKVTCVVVDISKDDPEVQFSWFVDDVEVHTAQTQPREEQFNSTFRSVSELPIMHQDWLNGKEFKCRVNSAAFPAPIEKTISKTKGRPKAPQVYTIPPPKEQMAKDKVSLTCMITDFFPEDITVEWQWNGQPAENYKNTQPIMDTDGSYFVYSKLNVQKSNWEAGNTFTCSVLHEGLHNHHTEKSLSHSPGK light: not shown	1	4	1	12.3	4.45	15.1
MB188 (antibody, mouse IgG1, kappa, copies: 2 + 2) heavy: QVQLQESGPGLVKPSETLSLTCAVSGHSISHDHAWSWVRQPPGEGLEWIGFISYSGITNYNPSLQGRVTISRDNSKNTLYLQMNSLRAEDTAVYYCARSLARTTAMDYWGEGTLVTVSSAKTTPPSVYPLAPGSAAQTNSMVTLGCLVKGYFPEPVTVTWNSGSLSSGVHTFPAVLQSDLYTLSSSVTVPSSTWPSETVTCNVAHPASSTKVDKKIVPRDCGCKPCICTVPEVSSVFIFPPKPKDVLTITLTPKVTCVVVDLSKDDPEVQFSWFVDDVEVHTAQTQPREEQFNSTFRSVSELPIMHQDWLNGKEFKCRVNSAAFPAPIEKTISKTKGRPKAPQVYTIPPPKEQMAKDKVSLTCMITDFFPEDITVEWQWNGQPAENYKNTQPIMDTDGSYFVYSKLNVQKSNWEAGNTFTCSVLHEGLHNHHTEKSLSHSPGK light: not shown	–	–	–	–	1	1.16
MB199 (antibody, mouse IgG1, kappa, copies: 2 + 2) heavy: QVQLQESGPGLVKPSETLSLTCAVSGHSISHDHAWSWVRQPPGEGLEWIGFISYSGITNYNPSLQGRVTISRDNSKNTLYLQMNSLRAEDTAVYYCARSLARTTAMDYWGEGTLVTVSSAKTTPPSVYPLAPGSAAQTNSMVTLGCLVKGYFPEPVTVTWNSGSLSSGVHTFPAVLQSDLYTLSSSVTVPSSTWPSETVTCNVAHPASSTKVDKKIVPRDCGCKPCICTVPEVSSVFIFPPKPKDVLTITLTPKVTCVVVDIAKDDPEVQFSWFVDDVEVHTAQTQPREEQFNSTFRSVSELPIMHQDWLNGKEFKCRVNSAAFPAPIEKTISKTKGRPKAPQVYTIPPPKEQMAKDKVSLTCMITDFFPEDITVEWQWNGQPAENYKNTQPIMDTDGSYFVYSKLNVQKSNWEAGNTFTCSVLHEGLHNHHTEKSLSHSPGK light: not shown	–	–	–	–	1.19	1.48
MB261 (antibody, mouse IgG1, kappa, copies: 2 + 2) heavy: QVQLQESGPGLVKPSETLSLTCAVSGHSISHDHAWSWVRQPPGEGLEWIGFISYSGITNYNPSLQGRVTISRDNSKNTLYLQMNSLRAEDTAVYYCARSLARTTAMDYWGEGTLVTVSSAKTTPPSVYPLAPGSAAQTNSMVTLGCLVKGYFPEPVTVTWNSGSLSSGVHTFPAVLQSDLYTLSSSVTVPSSTWPSETVTCNVAHPASSTKVDKKIVPRDCGCKPCICTVPEVSSVFIFPPKPKDVLTITLTPKVTCVVVDISKDDPEVQFSWFVDDVEVHTAQTQPREEQFNLTFRSVSELPIMHQDWLNGKEFKCRVNSAAFPAPIEKTISKTKGRPKAPQVYTIPPPKEQMAKDKVSLTCMITDFFPEDITVEWQWNGQPAENYKNTQPIMDTDGSYFVYSKLNVQKSNWEAGNTFTCSVLHEGLHNHHTEKSLSHSPGK light: not shown	–	–	–	–	1.81	2.11
MB161 (antibody, mouse IgG1, kappa, copies: 2 + 2) heavy: QVQLQESGPGLVKPSETLSLTCAVSGHSISHDHAWSWVRQPPGEGLEWIGFISYSGITNYNPSLQGRVTISRDNSKNTLYLQMNSLRAEDTAVYYCARSLARTTAMDYWGEGTLVTVSSAKTTPPSVYPLAPGSAAQTNSMVTLGCLVKGYFPEPVTVTWNSGSLSSGVHTFPAVLQSDLYTLSSSVTVPSSTWPSETVTCNVAHPASSTKVDKKIVPRDCGCKPCICTVPEVSSVWIFPPKPKDVLTITLTPKVTCVVVDISKDDPEVQFSWFVDDVEVHTAQTQPREEQFNSTFRSVSELPIMHQDWLNGKEFKCRVNSAAFPAPIEKTISKTKGRPKAPQVYTIPPPKEQMAKDKVSLTCMITDFFPEDITVEWQWNGQPAENYKNTQPIMDTDGSYFVYSKLNVQKSNWEAGNTFTCSVLHEGLHNHHTEKSLSHSPGK light: not shown	–	–	–	–	1.13	1.47
MB143 (antibody, mouse IgG1, kappa, copies: 2 + 2) heavy: QVQLQESGPGLVKPSETLSLTCAVSGHSISHDHAWSWVRQPPGEGLEWIGFISYSGITNYNPSLQGRVTISRDNSKNTLYLQMNSLRAEDTAVYYCARSLARTTAMDYWGEGTLVTVSSAKTTPPSVYPLAPGSAAQTNSMVTLGCLVKGYFPEPVTVTWNSGSLSSGVHTFPAVLQSDLYTLSSSVTVPSSTWPSETVTCNVAHPASSTKVDKKIVPRDCGCKPCICTVPEVSSWFIFPPKPKDVLTITLTPKVTCVVVDISKDDPEVQFSWFVDDVEVHTAQTQPREEQFNSTFRSVSELPIMHQDWLNGKEFKCRVNSAAFPAPIEKTISKTKGRPKAPQVYTIPPPKEQMAKDKVSLTCMITDFFPEDITVEWQWNGQPAENYKNTQPIMDTDGSYFVYSKLNVQKSNWEAGNTFTCSVLHEGLHNHHTEKSLSHSPGK light: not shown	–	–	–	–	6.32	7.42
MB162 (antibody, mouse IgG1, kappa, copies: 2 + 2) heavy: QVQLQESGPGLVKPSETLSLTCAVSGHSISHDHAWSWVRQPPGEGLEWIGFISYSGITNYNPSLQGRVTISRDNSKNTLYLQMNSLRAEDTAVYYCARSLARTTAMDYWGEGTLVTVSSAKTTPPSVYPLAPGSAAQTNSMVTLGCLVKGYFPEPVTVTWNSGSLSSGVHTFPAVLQSDLYTLSSSVTVPSSTWPSETVTCNVAHPASSTKVDKKIVPRDCGCKPCICTVPEVSSVYIFPPKPKDVLTITLTPKVTCVVVDISKDDPEVQFSWFVDDVEVHTAQTQPREEQFNSTFRSVSELPIMHQDWLNGKEFKCRVNSAAFPAPIEKTISKTKGRPKAPQVYTIPPPKEQMAKDKVSLTCMITDFFPEDITVEWQWNGQPAENYKNTQPIMDTDGSYFVYSKLNVQKSNWEAGNTFTCSVLHEGLHNHHTEKSLSHSPGK light: not shown	–	–	–	–	1.2	1.4
MB251 (antibody, mouse IgG1, kappa, copies: 2 + 2) heavy: QVQLQESGPGLVKPSETLSLTCAVSGHSISHDHAWSWVRQPPGEGLEWIGFISYSGITNYNPSLQGRVTISRDNSKNTLYLQMNSLRAEDTAVYYCARSLARTTAMDYWGEGTLVTVSSAKTTPPSVYPLAPGSAAQTNSMVTLGCLVKGYFPEPVTVTWNSGSLSSGVHTFPAVLQSDLYTLSSSVTVPSSTWPSETVTCNVAHPASSTKVDKKIVPRDCGCKPCICTVPEVSSVFIFPPKPKDVLTITLTPKVTCVVVDISKDDPEVQFSWFVDDVEVHTAQTQPREEQWNSTFRSVSELPIMHQDWLNGKEFKCRVNSAAFPAPIEKTISKTKGRPKAPQVYTIPPPKEQMAKDKVSLTCMITDFFPEDITVEWQWNGQPAENYKNTQPIMDTDGSYFVYSKLNVQKSNWEAGNTFTCSVLHEGLHNHHTEKSLSHSPGK light: not shown	–	–	–	–	1.23	1.49
